Columns and labels:
[1] = biological target: dock7_human DOCK7 (UniProt Q96N67)
[2] = biological target: vac14_human VAC14 (UniProt Q08AM6)
UniProt Q08AM6, sequence (Q08AM6 whole entry): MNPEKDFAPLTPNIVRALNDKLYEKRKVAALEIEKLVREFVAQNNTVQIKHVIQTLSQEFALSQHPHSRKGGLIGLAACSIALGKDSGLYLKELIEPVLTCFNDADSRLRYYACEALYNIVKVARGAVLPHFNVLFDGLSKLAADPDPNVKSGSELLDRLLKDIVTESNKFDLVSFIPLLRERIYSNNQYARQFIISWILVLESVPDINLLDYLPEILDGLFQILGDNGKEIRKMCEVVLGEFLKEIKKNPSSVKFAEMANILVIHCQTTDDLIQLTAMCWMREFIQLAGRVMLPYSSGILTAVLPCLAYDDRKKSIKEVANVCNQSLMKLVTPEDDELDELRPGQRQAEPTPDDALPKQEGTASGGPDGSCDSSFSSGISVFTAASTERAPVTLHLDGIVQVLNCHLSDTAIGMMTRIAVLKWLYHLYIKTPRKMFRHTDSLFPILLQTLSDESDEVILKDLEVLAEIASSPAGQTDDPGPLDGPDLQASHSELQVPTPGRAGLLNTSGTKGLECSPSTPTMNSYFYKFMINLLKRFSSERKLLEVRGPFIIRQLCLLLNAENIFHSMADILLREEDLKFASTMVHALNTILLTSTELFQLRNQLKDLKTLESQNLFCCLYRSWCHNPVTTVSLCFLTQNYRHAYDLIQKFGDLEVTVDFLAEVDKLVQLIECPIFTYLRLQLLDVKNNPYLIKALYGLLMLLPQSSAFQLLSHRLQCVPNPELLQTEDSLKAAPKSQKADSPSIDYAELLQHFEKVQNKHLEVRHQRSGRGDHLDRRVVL

UniProt Q96N67, sequence (Q96N67 whole entry): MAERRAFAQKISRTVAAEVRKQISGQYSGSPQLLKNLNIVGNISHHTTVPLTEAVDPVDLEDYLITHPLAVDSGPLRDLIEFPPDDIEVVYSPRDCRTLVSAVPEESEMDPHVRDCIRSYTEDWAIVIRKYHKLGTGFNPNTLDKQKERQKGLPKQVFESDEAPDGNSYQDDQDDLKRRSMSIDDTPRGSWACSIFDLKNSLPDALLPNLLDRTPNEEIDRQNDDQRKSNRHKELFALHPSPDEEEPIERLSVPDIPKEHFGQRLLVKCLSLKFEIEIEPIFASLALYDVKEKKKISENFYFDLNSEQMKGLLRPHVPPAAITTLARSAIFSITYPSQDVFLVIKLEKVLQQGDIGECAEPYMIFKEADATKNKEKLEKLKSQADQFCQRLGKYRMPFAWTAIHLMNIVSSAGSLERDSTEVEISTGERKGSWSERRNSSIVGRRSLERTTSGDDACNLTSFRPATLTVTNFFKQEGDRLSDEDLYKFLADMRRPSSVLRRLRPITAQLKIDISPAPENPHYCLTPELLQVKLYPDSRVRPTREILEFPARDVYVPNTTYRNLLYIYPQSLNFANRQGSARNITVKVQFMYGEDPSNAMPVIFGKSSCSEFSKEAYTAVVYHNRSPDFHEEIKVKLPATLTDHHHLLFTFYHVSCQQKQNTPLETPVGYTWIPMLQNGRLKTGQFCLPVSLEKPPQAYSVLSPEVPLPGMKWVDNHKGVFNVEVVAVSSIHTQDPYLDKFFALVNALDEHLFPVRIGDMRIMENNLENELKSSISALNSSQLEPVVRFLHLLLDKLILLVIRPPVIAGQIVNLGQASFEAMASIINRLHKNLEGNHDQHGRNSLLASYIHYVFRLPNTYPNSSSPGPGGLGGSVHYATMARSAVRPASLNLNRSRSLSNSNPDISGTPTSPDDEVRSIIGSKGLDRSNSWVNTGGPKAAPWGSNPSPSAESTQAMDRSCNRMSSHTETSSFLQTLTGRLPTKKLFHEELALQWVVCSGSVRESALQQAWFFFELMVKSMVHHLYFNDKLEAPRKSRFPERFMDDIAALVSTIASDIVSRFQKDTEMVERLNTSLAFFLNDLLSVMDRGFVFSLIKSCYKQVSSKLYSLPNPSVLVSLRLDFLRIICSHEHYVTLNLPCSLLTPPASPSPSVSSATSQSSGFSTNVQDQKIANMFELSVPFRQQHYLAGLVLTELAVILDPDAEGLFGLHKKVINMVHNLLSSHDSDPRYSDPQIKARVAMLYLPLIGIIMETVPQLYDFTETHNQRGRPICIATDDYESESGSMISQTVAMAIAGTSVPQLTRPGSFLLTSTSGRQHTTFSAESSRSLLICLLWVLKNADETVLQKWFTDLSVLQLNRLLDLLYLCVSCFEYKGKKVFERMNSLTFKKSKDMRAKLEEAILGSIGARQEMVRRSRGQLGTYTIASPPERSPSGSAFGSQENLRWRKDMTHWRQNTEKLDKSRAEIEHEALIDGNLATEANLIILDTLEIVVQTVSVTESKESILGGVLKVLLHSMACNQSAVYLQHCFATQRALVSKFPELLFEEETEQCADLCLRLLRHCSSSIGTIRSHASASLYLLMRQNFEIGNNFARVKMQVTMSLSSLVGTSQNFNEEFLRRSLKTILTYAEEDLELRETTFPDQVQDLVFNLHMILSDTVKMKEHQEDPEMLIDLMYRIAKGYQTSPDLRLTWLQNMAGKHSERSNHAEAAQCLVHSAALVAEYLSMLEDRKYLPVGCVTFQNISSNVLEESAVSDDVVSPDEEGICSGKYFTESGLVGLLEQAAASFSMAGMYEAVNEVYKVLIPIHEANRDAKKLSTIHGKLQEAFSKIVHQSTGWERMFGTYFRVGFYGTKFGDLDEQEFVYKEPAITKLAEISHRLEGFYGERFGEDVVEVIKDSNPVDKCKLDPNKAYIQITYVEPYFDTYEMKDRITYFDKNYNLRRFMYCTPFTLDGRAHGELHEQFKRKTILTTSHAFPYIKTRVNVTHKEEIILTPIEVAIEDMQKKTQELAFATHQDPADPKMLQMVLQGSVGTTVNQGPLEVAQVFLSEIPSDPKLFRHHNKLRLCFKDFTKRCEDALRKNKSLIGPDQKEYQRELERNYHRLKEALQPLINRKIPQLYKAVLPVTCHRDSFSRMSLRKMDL

effect of a mutation on the interaction [1] | effect of a mutation on the interaction [2] | Substance
with no effect | decreasing interaction strength | Neurobeachin-like protein 2 (Homo sapiens), Q6ZNJ1 M2080K
disrupting interaction strength | decreasing interaction strength | Neurobeachin-like protein 2 (Homo sapiens), Q6ZNJ1 P2100L
disrupting interaction strength | with no effect | Neurobeachin-like protein 2 (Homo sapiens), Q6ZNJ1 R2172H
decreasing interaction strength | decreasing interaction strength | Neurobeachin-like protein 2 (Homo sapiens), Q6ZNJ1 G2290W;E2294G
with no effect | increasing interaction strength | Neurobeachin-like protein 2 (Homo sapiens), Q6ZNJ1 S2269L
